Patent publication EP4285935A1 (Emergence Therapeutics AG, dated 2023)

Experiments:
[1] = biological target: T1, N-terminal Flag-tagged human Nectin-4 on transfected MDA-MB231 cells (human, UniProt Q96NY8 32-510); experiment: flow cytometry on MDA-MB231 cells transfected with N-terminal Flag-tagged Nectin-4, dose range 0.3 ng/mL - 5 µg/mL (FIG. 1)
T1 construct: whole, on cells; also called PVRL4; Flag-tagged Nectin-4; not shown: N-terminal Flag tag from vector p3XFLR4.C1
T1 sequence (looked up): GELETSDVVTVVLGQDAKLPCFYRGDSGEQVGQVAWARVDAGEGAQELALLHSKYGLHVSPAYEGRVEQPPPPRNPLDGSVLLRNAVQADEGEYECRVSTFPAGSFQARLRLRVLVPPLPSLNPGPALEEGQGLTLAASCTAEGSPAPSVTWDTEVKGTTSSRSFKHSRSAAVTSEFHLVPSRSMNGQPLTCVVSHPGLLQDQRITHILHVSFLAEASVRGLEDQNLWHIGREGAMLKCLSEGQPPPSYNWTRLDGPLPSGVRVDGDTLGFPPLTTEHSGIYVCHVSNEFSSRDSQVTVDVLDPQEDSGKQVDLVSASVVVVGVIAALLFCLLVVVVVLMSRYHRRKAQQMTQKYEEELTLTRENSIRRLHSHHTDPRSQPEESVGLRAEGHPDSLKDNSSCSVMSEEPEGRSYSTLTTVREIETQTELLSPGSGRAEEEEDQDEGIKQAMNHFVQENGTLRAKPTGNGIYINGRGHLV

human Nectin-4 on cells = biological target: T2, human Nectin-4 on cells (human, UniProt Q96NY8 32-510); experiment: flow cytometry on normal differentiated human keratinocytes (NHEK), dose range 8 pM - 33 nM (FIG. 15); Ch-5A12.2 is the reference of the comparison
T2 construct: whole, on cells; also called CHO cells transfected with human Nectin-4 cDNA; Nectin-4 expressed by normal differentiated human keratinocytes (NHEK)
T2 sequence (looked up): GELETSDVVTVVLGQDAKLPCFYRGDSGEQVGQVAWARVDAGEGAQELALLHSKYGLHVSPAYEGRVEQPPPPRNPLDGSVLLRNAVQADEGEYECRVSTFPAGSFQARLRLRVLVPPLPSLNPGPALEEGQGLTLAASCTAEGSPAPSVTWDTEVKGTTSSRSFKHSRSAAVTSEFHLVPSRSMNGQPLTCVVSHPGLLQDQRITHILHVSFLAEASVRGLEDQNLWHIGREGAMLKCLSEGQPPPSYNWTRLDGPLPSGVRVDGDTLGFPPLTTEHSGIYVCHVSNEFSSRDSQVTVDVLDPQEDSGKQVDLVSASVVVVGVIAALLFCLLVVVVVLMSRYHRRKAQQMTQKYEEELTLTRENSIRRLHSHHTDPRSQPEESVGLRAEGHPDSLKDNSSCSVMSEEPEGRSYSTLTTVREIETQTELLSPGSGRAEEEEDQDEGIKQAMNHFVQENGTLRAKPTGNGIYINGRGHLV

- binding result [1]: binds
- binding result (human Nectin-4 on cells): binds
B1: Ch-5A12.2 (antibody, V domains shown)
VH: QIQLQQSGAELVKPGASVTLSCKTSGFTFNSMYISWLKQKPGQSLEWIAWIYAGTGGTRFNQKFTGKVQLTVDTSSSTAYMQFSSLTTDDSAIYYCAIRSGFVPMDYWGQGTSVTVSS
VL: SIVMTQTPKFLLVSAGDRVTITCKASQSVSNDVAWYQQKPGQSPKLLIYYASNRYTGVPDRFTGSGYGTDFTFTISTVQAEDLAVYFCQQDYSSPWTFGGGTKLEIK
notes: also called 5A12.2 mAb; Ch-5A12.2 mAb
